We go through 3 molecules from publication PMC10397244, “BIK1 protein homeostasis is maintained by the interplay of different ubiquitin ligases in immune signaling” (Nature Communications, 2023).

Test in all cases: pull-down; GST fusion protein or GST immobilised on GSH beads, incubated with purified recombinant protein; 20 mM Tris-HCl pH 7.5, 150 mM NaCl, 3 mM EDTA, 0.5% Triton X-100, 4 C, 2 h; immunoblot
What all share (conditions): both partners purified
For orientation: In western blotting, separated proteins are transferred to a membrane and probed.

One assay addresses T1, GST-RGLG2 (Arabidopsis thaliana, UniProt Q9LY87 1-468).
T1 construct: RGLG2, Arabidopsis; CDS subcloned into a GST-tag vector; also called RING DOMAIN LIGASE 2; source: E. coli BL21 (recombinant); immobilised on GSH beads; not shown: GST, N-terminal, kept
T1 sequence (looked up): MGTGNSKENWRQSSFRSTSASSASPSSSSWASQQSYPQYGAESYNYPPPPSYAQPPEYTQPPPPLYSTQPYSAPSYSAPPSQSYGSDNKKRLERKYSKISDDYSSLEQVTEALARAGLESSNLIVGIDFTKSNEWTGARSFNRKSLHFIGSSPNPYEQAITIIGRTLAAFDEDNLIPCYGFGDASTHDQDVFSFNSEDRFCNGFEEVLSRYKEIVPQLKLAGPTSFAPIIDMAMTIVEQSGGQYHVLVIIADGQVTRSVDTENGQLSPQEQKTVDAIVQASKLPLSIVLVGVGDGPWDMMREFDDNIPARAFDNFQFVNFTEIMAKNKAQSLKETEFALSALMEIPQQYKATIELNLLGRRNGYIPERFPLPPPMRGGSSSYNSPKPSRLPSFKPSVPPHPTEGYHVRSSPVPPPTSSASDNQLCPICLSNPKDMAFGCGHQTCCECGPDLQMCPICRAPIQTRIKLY

In assay [1] the target is T2, RGLG1 (recombinant, in vitro; tag of the experiment not told) (Arabidopsis thaliana, UniProt Q9SS90 1-489).
T2 construct: RGLG1, Arabidopsis; CDS subcloned into His-, GST- or MBP-tag vectors; also called RING DOMAIN LIGASE 1; source: E. coli BL21, purified
T2 sequence (looked up): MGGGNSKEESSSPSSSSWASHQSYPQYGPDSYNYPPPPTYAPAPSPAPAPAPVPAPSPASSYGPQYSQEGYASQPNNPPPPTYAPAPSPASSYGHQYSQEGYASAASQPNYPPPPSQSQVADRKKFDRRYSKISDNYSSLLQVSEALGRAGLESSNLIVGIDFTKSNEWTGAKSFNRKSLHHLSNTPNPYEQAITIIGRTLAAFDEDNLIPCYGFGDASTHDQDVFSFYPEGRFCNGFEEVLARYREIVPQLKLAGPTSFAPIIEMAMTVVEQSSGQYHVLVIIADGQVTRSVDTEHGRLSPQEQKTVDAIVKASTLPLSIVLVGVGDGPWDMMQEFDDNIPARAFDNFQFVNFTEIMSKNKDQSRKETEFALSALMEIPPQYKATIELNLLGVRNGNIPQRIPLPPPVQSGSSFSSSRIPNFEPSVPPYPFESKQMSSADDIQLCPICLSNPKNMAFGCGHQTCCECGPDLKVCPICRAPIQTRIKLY

In assay [2] the target is T3, RGLG2 (recombinant, in vitro; tag of the experiment not told) (Arabidopsis thaliana, UniProt Q9LY87 1-468).
T3 construct: RGLG2, Arabidopsis; CDS subcloned into His-, GST- or MBP-tag vectors; also called RING DOMAIN LIGASE 2; source: E. coli BL21, purified
T3 sequence (looked up): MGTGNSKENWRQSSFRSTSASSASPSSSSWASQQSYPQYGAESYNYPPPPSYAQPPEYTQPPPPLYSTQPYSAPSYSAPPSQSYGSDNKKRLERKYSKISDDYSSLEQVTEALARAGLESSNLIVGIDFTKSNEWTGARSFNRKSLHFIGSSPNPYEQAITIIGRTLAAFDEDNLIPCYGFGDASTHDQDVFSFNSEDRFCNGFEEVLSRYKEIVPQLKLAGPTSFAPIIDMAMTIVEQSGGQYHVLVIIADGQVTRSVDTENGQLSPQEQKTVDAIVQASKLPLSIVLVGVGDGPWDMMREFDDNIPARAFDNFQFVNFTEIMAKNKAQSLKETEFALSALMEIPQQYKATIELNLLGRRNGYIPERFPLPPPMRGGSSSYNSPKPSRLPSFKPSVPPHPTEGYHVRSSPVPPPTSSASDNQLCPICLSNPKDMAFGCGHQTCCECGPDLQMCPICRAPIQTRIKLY

Another assay deals with T4, His-FLAG-RGLG1 (Arabidopsis thaliana, UniProt Q9SS90 1-489).
T4 construct: RGLG1, Arabidopsis; CDS subcloned into modified pET28a; also called RING DOMAIN LIGASE 1; source: E. coli BL21, purified (Ni-NTA); not shown: FLAG, N-terminal, kept
T4 sequence (looked up): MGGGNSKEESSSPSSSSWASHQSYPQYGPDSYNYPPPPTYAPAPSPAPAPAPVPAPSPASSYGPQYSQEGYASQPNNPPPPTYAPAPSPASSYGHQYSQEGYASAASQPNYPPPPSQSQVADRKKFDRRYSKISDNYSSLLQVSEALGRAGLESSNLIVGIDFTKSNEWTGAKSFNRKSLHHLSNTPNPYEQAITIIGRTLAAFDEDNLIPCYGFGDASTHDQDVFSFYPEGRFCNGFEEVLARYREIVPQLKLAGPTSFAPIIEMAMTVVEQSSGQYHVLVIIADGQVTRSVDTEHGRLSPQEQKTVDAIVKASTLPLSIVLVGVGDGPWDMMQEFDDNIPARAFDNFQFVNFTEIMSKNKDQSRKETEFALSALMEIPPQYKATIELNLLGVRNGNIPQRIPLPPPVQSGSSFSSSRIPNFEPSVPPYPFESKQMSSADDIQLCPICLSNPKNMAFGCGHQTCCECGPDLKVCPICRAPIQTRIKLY

B1: His-FLAG-PUB25 (natural protein, Arabidopsis thaliana, UniProt Q9LT79 1-421, looked up)
chain: MPRNIEPLDLGIQIPYHFRCPISLELMQDPVTVCTGQTYDRASIESWVSIGNNTTCPVTRAPLSDFTLIPNHTLRRLIQEWCVANRSNGVERIPTPKQPADPTSVRALLSQASAITGTHVSVRSRAAALRRLRGFARDSDKNRVLIAAHNATEILIKILFSETTSSELVSESLALLVMLPITEPNQFVSISSDPGRVEFLTRLLFDSSIETRVNAAALIEIVSTGTKSADLKGSISNSESVFEGVLDLLRNPISSRRALKIGIKTLFALCSVKSTRHIAITAGAPEILIDRLAADFDRCDTERALATVELLCRTPEGCAAFGEHALTVPLLVKTILRVSDRATEYAAGALLALCTAEERWREEAAGAGVVVQLLLMVQSECTERAKKKAQKLLKLLRDSWPDYNSFANSDDFGCSSQVVPF
notes: PUB25, Arabidopsis; CDS subcloned into modified pET28a; also called PLANT U-BOX PROTEIN 25; source: E. coli BL21, purified (Ni-NTA); not shown: FLAG, N-terminal, kept
In the case of B1, in the assay with GST-RGLG2, the binding result was “binds”.

B2: PUB25 (recombinant, in vitro; tag of the experiment not told) (natural protein, Arabidopsis thaliana, UniProt Q9LT79 1-421, looked up)
chain: MPRNIEPLDLGIQIPYHFRCPISLELMQDPVTVCTGQTYDRASIESWVSIGNNTTCPVTRAPLSDFTLIPNHTLRRLIQEWCVANRSNGVERIPTPKQPADPTSVRALLSQASAITGTHVSVRSRAAALRRLRGFARDSDKNRVLIAAHNATEILIKILFSETTSSELVSESLALLVMLPITEPNQFVSISSDPGRVEFLTRLLFDSSIETRVNAAALIEIVSTGTKSADLKGSISNSESVFEGVLDLLRNPISSRRALKIGIKTLFALCSVKSTRHIAITAGAPEILIDRLAADFDRCDTERALATVELLCRTPEGCAAFGEHALTVPLLVKTILRVSDRATEYAAGALLALCTAEERWREEAAGAGVVVQLLLMVQSECTERAKKKAQKLLKLLRDSWPDYNSFANSDDFGCSSQVVPF
notes: PUB25, Arabidopsis; CDS subcloned into His-, GST- or MBP-tag vectors; also called PLANT U-BOX PROTEIN 25; source: E. coli BL21, purified
For B2, in assay [1], the binding result was “binds”.

B3: GST-BIK1 (natural protein, Arabidopsis thaliana, UniProt O48814 1-395, looked up)
chain: MGSCFSSRVKADIFHNGKSSDLYGLSLSSRKSSSTVAAAQKTEGEILSSTPVKSFTFNELKLATRNFRPDSVIGEGGFGCVFKGWLDESTLTPTKPGTGLVIAVKKLNQEGFQGHREWLTEINYLGQLSHPNLVKLIGYCLEDEHRLLVYEFMQKGSLENHLFRRGAYFKPLPWFLRVNVALDAAKGLAFLHSDPVKVIYRDIKASNILLDADYNAKLSDFGLARDGPMGDLSYVSTRVMGTYGYAAPEYMSSGHLNARSDVYSFGVLLLEILSGKRALDHNRPAKEENLVDWARPYLTSKRKVLLIVDNRLDTQYLPEEAVRMASVAVQCLSFEPKSRPTMDQVVRALQQLQDNLGKPSQTNPVKDTKKLGFKTGTTKSSEKRFTQKPFGRHLV
notes: BIK1, Arabidopsis; pGEX-BIK1 (modified pGEX-6P-1); also called BIK1 fused to a GST tag; source: E. coli BL21, purified; immobilised on GSH beads; not shown: GST, N-terminal, kept
B3: the binding result (in assay [2]; in the assay with His-FLAG-RGLG1) was “binds” each time.
